Consider two molecules from publication PMC7498313, “The Sac10b homolog from Sulfolobus islandicus is an RNA chaperone”.

In data set [1] the target is T1, Sis10b K16A (Sulfolobus islandicus REY15A, UniProt F0NHH1 1-97, K16A).
T1 sequence: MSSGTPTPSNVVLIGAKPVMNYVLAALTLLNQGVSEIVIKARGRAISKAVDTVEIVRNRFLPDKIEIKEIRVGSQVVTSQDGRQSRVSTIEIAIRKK
Nature of the data set: EMSA; 37°C; slightly weaker than dsRNA; EMSA: 20 mM HEPES-NaOH pH 7.0, 1 mM DTT, 100 ug/ml BSA, 6% glycerol, 30 min at 25, 37 or 55°C; gel in 0.5x TBE at the same temperature. The settings on record: protein: recombinant; tags: none; chain copies: 2; label: 5' 32P; single strand. A general note: A gel shift assay detects complexes by their altered migration in electrophoresis.

For data set [2], the target named is T2, Sis10b K17R (Sulfolobus islandicus REY15A, UniProt F0NHH1 1-97, K17R).
T2 sequence: T1 sequence with A16K, K17R
Described as above. The settings on record: protein: recombinant; tags: none; chain copies: 2; label: 5' 32P; single strand.

Data set [3] deals with T3, Sis10b K17A (Sulfolobus islandicus REY15A, UniProt F0NHH1 1-97, K17A).
T3 sequence: T1 sequence with A16K, K17A
Nature of the data set: EMSA; 55°C; no ssRNA preference over dsRNA; EMSA: 20 mM HEPES-NaOH pH 7.0, 1 mM DTT, 100 ug/ml BSA, 6% glycerol, 30 min at 25, 37 or 55°C; gel in 0.5x TBE at the same temperature. Conditions: protein: recombinant; tags: none; chain copies: 2; label: 5' 32P; single strand.

Data set [4] deals with T4, Sis10b M20E/L24E/L27E/F60E (Sulfolobus islandicus REY15A, UniProt F0NHH1 1-97, M20E;L24E;L27E;F60E).
T4 sequence: T1 sequence with A16K, M20E, L24E, L27E, F60E
Nature of the data set: EMSA; 55°C; EMSA: 20 mM HEPES-NaOH pH 7.0, 1 mM DTT, 100 ug/ml BSA, 6% glycerol, 30 min at 25, 37 or 55°C; gel in 0.5x TBE at the same temperature. The settings on record: protein: recombinant; tags: none; chain copies: 2; label: 5' 32P on top strand; blunt.

Data set [5] has as its target T5, Sis10b ΔN12 (Sulfolobus islandicus REY15A, UniProt F0NHH1 13-97, del1-12).
T5 sequence: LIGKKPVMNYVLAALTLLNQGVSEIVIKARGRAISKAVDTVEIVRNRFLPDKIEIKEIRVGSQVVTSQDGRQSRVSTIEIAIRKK
The description is as above. The settings on record: protein: recombinant; tags: none; chain copies: 2; label: 5' 32P on top strand; blunt.

Data set [6] addresses T2, Sis10b K17R. The data set is described as above. The settings on record: protein: recombinant; tags: none; chain copies: 2; label: 5' 32P on top strand; blunt.
Data set [7] addresses T3, Sis10b K17A. Nature of the data set: EMSA; 37°C; 1.1-1.7-fold better than ssRNA; EMSA: 20 mM HEPES-NaOH pH 7.0, 1 mM DTT, 100 ug/ml BSA, 6% glycerol, 30 min at 25, 37 or 55°C; gel in 0.5x TBE at the same temperature. The settings on record: protein: recombinant; tags: none; chain copies: 2; label: 5' 32P on top strand; blunt.
For data set [8], the target named is T1, Sis10b K16A. Described as above. The settings on record: protein: recombinant; tags: none; chain copies: 2; label: 5' 32P on top strand; blunt.

One may read the Kd as the constant that tells how readily two partners part at equilibrium.

Where a chain is given by its changes, count along the chain named.

As for UGACUUCCGCGCGUGAGCUCGAUUCCACAUACCCUAAAUCGCUC (ssRNA) [44-nt ssRNA (t)], the binding result in data set [1], in data set [2] and in data set [3] was “binds” throughout.

B1: 44-bp dsRNA (dsRNA)
RNA 1: UGACUUCCGCGCGUGAGCUCGAUUCCACAUACCCUAAAUCGCUC
RNA 2: GAGCGAUUUAGGGUAUGUGGAAUCGAGCUCACGCGCGGAAGUCA
Regarding B1, the Kd is ~82.3 nM in data set [4], ~98.1 nM in data set [5] and ~28.2 nM in data set [6]. The binding result in data set [7] and in data set [8] was “binds” in each case.
